Data reported in patent US20140255407A1 (MacroGenics, published 2014).

T1: Canine B7-H3
T1 chain: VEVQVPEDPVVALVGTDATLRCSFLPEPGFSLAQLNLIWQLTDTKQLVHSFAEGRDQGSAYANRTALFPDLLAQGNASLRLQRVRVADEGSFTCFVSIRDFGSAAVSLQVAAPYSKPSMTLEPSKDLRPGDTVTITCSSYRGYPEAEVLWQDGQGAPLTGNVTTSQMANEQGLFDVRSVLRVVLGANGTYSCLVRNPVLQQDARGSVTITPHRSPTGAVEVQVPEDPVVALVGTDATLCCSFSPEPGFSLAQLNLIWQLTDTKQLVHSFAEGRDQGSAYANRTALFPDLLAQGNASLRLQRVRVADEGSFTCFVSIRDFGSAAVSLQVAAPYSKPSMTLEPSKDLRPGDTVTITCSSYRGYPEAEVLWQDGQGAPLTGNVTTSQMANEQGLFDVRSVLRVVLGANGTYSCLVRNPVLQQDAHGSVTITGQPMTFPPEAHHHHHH

T2: Human B7-H3 (human, UniProt Q5ZPR3 29-466)
T2 chain: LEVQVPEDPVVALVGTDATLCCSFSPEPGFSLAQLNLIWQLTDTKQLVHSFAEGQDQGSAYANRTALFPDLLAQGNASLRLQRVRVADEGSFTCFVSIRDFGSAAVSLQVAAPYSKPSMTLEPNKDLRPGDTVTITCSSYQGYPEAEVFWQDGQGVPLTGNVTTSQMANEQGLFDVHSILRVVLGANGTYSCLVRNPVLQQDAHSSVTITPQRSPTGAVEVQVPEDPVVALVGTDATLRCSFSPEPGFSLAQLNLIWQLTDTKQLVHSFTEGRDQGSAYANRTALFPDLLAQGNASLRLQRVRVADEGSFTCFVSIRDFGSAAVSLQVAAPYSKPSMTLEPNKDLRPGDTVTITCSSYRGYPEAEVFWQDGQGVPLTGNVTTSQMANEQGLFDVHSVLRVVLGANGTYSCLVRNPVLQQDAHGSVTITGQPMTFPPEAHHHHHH

T3: soluble human B7-H3 with 6xHis tag at the carboxy terminus (human, UniProt Q5ZPR3 29-466)
T3 construct: extracellular domain; also called hB7-H3; human B7H3(4Ig)-His
T3 sequence: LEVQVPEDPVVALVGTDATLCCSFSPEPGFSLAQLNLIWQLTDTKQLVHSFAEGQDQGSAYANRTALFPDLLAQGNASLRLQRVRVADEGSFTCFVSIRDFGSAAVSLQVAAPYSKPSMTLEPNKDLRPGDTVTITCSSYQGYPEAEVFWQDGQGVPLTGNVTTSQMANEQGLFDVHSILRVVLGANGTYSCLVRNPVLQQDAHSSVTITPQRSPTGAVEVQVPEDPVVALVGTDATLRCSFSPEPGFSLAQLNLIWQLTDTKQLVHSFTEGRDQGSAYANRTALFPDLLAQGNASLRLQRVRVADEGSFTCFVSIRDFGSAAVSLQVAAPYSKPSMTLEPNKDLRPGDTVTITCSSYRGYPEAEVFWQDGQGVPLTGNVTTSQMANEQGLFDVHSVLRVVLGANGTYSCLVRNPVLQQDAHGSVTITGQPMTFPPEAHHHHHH

T4: soluble human B7-H3 with 6xHis tag at the carboxy terminus (human, UniProt Q5ZPR3 29-466)
T4 chain: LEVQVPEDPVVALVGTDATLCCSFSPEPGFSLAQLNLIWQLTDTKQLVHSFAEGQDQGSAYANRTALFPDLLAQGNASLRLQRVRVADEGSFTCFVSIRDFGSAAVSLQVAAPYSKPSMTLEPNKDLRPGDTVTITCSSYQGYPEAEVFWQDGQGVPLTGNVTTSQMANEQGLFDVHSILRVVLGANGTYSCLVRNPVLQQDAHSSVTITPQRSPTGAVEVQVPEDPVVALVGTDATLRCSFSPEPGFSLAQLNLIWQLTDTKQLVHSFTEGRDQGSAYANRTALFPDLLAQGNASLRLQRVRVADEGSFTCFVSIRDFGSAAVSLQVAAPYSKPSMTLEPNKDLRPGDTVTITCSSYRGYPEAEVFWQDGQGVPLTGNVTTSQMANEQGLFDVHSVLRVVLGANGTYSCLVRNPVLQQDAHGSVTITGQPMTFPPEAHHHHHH

T5: soluble canine B7-H3 with 6xHis tag at the carboxy terminus
T5 chain: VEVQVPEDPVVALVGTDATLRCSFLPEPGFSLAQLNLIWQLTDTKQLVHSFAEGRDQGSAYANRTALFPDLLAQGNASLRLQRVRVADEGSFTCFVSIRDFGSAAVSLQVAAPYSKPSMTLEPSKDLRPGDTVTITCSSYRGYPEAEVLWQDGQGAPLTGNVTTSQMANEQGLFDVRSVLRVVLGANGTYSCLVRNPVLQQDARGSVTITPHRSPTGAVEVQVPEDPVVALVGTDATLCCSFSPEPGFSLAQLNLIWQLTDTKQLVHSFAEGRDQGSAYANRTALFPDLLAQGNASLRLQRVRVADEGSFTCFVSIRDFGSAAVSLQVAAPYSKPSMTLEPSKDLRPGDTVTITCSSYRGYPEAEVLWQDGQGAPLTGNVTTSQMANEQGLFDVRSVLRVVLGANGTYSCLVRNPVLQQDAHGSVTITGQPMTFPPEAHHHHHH


Key:
Canine B7-H3 = molecular target: T1, Canine B7-H3; experiment: SPR
Human B7-H3 = molecular target: T2, Human B7-H3; experiment: SPR
[1] = molecular target: T3, soluble human B7-H3 with 6xHis tag at …; experiment: ELISA and SPR on soluble human B7-H3-His
Description: Antibodies hBRCA84D and hBRCA69D were tested in an ELISA for binding to canine B7-H3. Briefly, soluble human B7-H3 and canine B7-H3 were expressed in CHO cells. Each soluble molecule was engineered to express a 6×His tag at the carboxy terminus to aid in purification of the expressed protein. The molecules were purified by nickel column chromatography using standard techniques. ELISA plates were coated with the soluble B7-H3 and allowed to dry. The plates were washed and blocked using standard ELISA techniques. The wells were probed with either hBRCA84D, hBRCA69D or a control hIgG. Secondary detection reagent was added and binding was determined As shown in FIG. 1A (hBRCA84D) and FIG. 1B (hBRCA69D), the antibodies were able to bind to soluble canine B7-H3 (cB7-H3). To determine binding affinity of the hBRCA84D and hBRCA69D antibodies to soluble canine B7-H3, SPR analysis was conducted. As shown in FIGS. 1C and 1D (hBRCA84D) and FIGS. 1E and 1F (BRCA69D) the binding affinities are similar to the binding of the antibodies to soluble human B7-H3 (shown in FIG. 1A and FIG. 1B, respectively).

[2] = molecular target: T4, soluble human B7-H3 with 6xHis tag at …; experiment: SPR
[3] = molecular target: T5, soluble canine B7-H3 with 6xHis tag at …; experiment: SPR

Kd (Canine B7-H3) | Kd (Human B7-H3) | binding result [1] | Kd [2] | Kd [3] | Binder
39 nM | 45 nM | – | – | – | hBRCA84D (antibody, V domains shown) VH: EVQLVESGGGLVQPGGSLRLSCAASGFTFSSFGMHWVRQAPGKGLEWVAYISSDSSAIYYADTVKGRFTISRDNAKNSLYLQMNSLRDEDTAVYYCGRGRENIYYGSRLDYWGQGTTVTVSS VL: DIQLTQSPSFLSASVGDRVTITCKASQNVDTNVAWYQQKPGKAPKALIYSASYRYSGVPSRFSGSGSGTDFTLTISSLQPEDFATYYCQQYNNYPFTFGQGTKLEIKR
– | – | binds | 8.8 nM | 8.4 nM | hBRCA69D (humanized antibody BRCA69D) (antibody, V domains shown, Residue limits are my derivation) VH: QVQLVQSGAEVKKPGASVKVSCKASGYTFTSYWMQWVRQAPGQGLEWMGTIYPGDGDTRYTQKFKGRVTITADKSTSTAYMELSSLRSEDTAVYYCARRGIPRLWYFDVWGQGTTVTVSS VL: DIQMTQSPSSLSASVGDRVTITCRASQDISNYLNWYQQKPGKAPKLLIYYTSRLHSGVPSRFSGSGSGTDFTLTISSLQPEDIATYYCQQGNTLPPTFGGGTKLEIK
